Reference: publication PMC7238435

Target: recombinant human cartilage oligomeric matrix protein (COMP) (human) (UniProt P49747)
Assay: atomic force microscopy

Sequence of recombinant human cartilage oligomeric matrix protein (COMP), P49747 21-757 (natural protein; other documents disagree on this pair) (P49747 21-757): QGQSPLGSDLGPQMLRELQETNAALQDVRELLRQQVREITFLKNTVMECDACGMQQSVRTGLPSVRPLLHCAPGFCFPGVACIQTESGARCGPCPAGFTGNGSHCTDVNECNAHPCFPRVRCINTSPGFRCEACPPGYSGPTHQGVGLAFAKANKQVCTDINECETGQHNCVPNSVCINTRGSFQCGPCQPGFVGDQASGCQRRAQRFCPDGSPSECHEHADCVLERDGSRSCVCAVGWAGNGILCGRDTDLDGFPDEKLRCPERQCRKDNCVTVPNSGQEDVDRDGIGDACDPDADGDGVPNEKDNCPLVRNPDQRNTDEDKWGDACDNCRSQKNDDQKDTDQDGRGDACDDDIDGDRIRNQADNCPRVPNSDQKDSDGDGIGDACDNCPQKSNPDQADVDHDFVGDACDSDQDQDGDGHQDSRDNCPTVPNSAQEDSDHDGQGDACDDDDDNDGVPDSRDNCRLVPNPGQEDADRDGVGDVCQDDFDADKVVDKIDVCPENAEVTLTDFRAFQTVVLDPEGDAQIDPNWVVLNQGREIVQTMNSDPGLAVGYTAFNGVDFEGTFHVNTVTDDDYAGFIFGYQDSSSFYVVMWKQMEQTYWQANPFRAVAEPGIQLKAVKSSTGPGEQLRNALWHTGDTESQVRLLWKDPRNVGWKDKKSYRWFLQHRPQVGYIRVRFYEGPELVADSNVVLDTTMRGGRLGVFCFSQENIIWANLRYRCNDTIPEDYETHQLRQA

Substance: recombinant human cartilage oligomeric matrix protein (COMP), P49747 21-757 (natural protein; other documents disagree on this pair)
- stoichiometry N: 5
